Where a chain is given by its changes, count along the chain named.
B1: VEGF-D^ΔNΔC (ligand, not shown: small tags and cut ends)
chain: FYDIETLKVIDEEWQRTQCSPRETCVEVASELGKSTNTFFKPPCVNVFRCGGCCNEESLICMNTSTSYISKQLFEISVPLTSVPELVPVKVANHTGCKCLPTAPRHPYSHHHHHH
notes: Amino acids 93-201 of wild-type VEGF-D with N-terminal Flag-tag and C-terminal 6xHis; found partially as a covalent dimer, otherwise non-covalent dimer or monomer; also called mature form of VEGF-D; native VEGF-D^ΔNΔC
B2: VEGF-D^ΔNΔC25A (ligand, not shown: small tags and cut ends)
chain: B1 chain with C25A
notes: Formed more covalent dimer than the native form; also called Cys25 to Ala mutant of VEGF-D^ΔNΔC

Biological target: the molecule itself
Assay: homodimer formation, SDS-PAGE on non-reducing conditions
Experimental: Purified proteins were analyzed by SDS-PAGE in both denaturing and non-denaturing conditions, staining the gels with Silver Snap Stain KitII (Pierce) or Page Blue Protein Staining Solution (Fermentas). Alternatively, proteins were transferred to nitrocellulose membrane and detected using a VEGF-D monoclonal antibody (MAB286, R&D Systems).
Covalent dimer formation: The ability of VEGF-$D^{\Delta N \Delta C}$, VEGF-$D^{\Delta N \Delta C}$25A and VEGF-$D^{\Delta N \Delta C}$53A to form covalent dimers was evaluated by SDS-PAGE on non-reducing conditions. […] As expected, covalent dimer formation of VEGF-$D^{\Delta N \Delta C}$53A was hindered.

| Protein | binding result |
| --- | --- |
| B1 | binds |
| B2 | binds |

Source: US8188039 (ARK THERAPEUTICS GROUP, dated 2012)
